Here are results for five molecules from publication PMC4125498 (Nature structural & molecular biology, 2014).

No end group written: not given here.

The labels stand for the following.
B5: human Plk4 cryptic polo box (CPB, residues 580–808), His6-MBP tag removed (domain or fragment, UniProt O00444 580-808, looked up)
chain: WGYQNRTLRSITSPLVAHRLKPIRQKTKKAVVSILDSEEVCVELVKEYASQEYVKEVLQISSDGNTITIYYPNGGRGFPLADRPPSPTDNISRYSFDNLPEKYWRKYQYASRFVQLVRSKSPKITYFTRYAKCILMENSPGADFEVWFYDGVKIHKTEDFIQVIEKTGKSYTLKSESEVNSLKEEIKMYMDHANEGHRICLALESIISEEERKTRSAPFFPIIIGRKPG

In experiment [1] the target is B5. Description: fluorescence polarisation. In general terms: Fluorescence polarisation rises when a labelled molecule tumbles more slowly, as on binding a larger partner.
For the next experiment, the target named is T1, GST-Plk4 C (580–970) (human, UniProt O00444 580-970).
T1 sequence (looked up): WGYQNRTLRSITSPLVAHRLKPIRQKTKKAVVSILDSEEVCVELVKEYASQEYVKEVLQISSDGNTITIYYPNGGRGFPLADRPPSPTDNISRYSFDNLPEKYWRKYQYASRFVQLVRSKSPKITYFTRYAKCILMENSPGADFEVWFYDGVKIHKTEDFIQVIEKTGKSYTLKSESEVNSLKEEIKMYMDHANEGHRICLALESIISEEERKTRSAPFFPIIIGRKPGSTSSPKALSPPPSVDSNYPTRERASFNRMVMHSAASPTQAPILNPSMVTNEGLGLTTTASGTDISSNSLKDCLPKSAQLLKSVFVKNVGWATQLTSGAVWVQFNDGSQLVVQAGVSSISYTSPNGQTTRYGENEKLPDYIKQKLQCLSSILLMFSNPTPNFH
The experiment can be described thus: pull-down.

The target of experiment [2] is B5. The experiment can be described thus: fluorescence polarisation. The source holds these as a separate data set.
The target of experiment [3] is T2, His6-MBP-TEV-Cep192 58mer (201–258) (human, UniProt Q8TEP8 201-258).
T2 sequence (looked up): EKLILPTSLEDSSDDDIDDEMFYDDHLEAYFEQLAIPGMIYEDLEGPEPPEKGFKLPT
The experiment can be described thus: pull-down.

B1: Alexa 488-conjugated MBP-Cep192-58mer (domain or fragment, human, UniProt Q8TEP8 201-258, looked up)
chain: EKLILPTSLEDSSDDDIDDEMFYDDHLEAYFEQLAIPGMIYEDLEGPEPPEKGFKLPT
modifications: also: Alexa Fluor 488 conjugated, sites not given here, MBP fusion
What is called Kd is a measure of binding affinity in units of concentration. A lower Kd goes with tighter binding. As for B1, binding in experiment [1] was put at a Kd of 177 nM.

B2: His6-MBP-TEV-Cep152 (1–217) (domain or fragment, human, UniProt O94986 1-217, looked up)
chain: MSLDFGSVALPVQNEDEEYDEEDYEREKELQQLLTDLPHDMLDDDLSSPELQYSDCSEDGTDGQPHHPEQLEMSWNEQMLPKSQSVNGYNEIQSLYAGEKCGNVWEENRSKTEDRHPVYHPEEGGDEGGSGYSPPSKCEQTDLYHLPENFRPYTNGQKQEFNNQATNVIKFSDPQWNHFQGPSCQGLEPYNKVTYKPYQSSAQNNGSPAQEITGSDT
Regarding B2, the binding result in the experiment with GST-Plk4 C (580–970) is “binds”.

B3: Alexa 488-conjugated MBP-Cep152-60mer (domain or fragment, human, UniProt O94986 1-60, looked up)
chain: MSLDFGSVALPVQNEDEEYDEEDYEREKELQQLLTDLPHDMLDDDLSSPELQYSDCSEDG
modifications: also: Alexa Fluor 488 conjugated, sites not given here, MBP fusion
Take B3: the Kd in experiment [1] came out at 32 nM.

B4: His6-MBP-TEV-Cep152 60mer (1–60) (domain or fragment, human, UniProt O94986 1-60, looked up)
chain: MSLDFGSVALPVQNEDEEYDEEDYEREKELQQLLTDLPHDMLDDDLSSPELQYSDCSEDG
A word on the IC50: it is the concentration at which inhibition is half-maximal. B4 registered an IC50 in experiment [2] of 64 nM.

Regarding B5, the “stoichiometry N” value in experiment [3] was ~2 MBP-Cep192-58mer per CPB dimer.
